Sequences and labels used below:
T1: β-catenin prey fusion of plasmid pGAD424-βctn (UniProt P35222 14-172)
T1 sequence (looked up): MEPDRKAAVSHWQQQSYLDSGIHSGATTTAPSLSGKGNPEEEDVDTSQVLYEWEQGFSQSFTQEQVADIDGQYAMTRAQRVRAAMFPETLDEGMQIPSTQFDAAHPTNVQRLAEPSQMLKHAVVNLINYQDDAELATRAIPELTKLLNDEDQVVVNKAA

B1: amino terminal part of β-catenin, prey fusion of plasmid pGAD424-ATβctn (other, UniProt P35222 14-172, looked up)
chain: T1 sequence (looked up)
notes: domain: amino terminal fragment 239-717; also called amino terminal fragment 239-717 of β-catenin; not shown: fusion partner encoded by the prey vector pGAD424 (Clontech)
B2: human αT-catenin fused to the GAL4 binding domain, bait plasmid pGBKT7-ATCTN(179-3024) (other, not shown: large carriers)
chain: SAETPITLNIDPQDLQVQTFTVEKLLEPLIIQVTTLVNCPQNPSSRKKGRSKRASVLLASVEEATWNLLDKGEKIAQEATVLKDELTASLEEVRKESEALKVSAERFTDDPCFLPKREAVVQAARALLAAVTRLLILADMIDVMCLLQHVSAFQRTFETLKNVANKSDLQKTYQKLGKELENLDYLAFKRQQDLKSPNQRDEIAGARASLKENSPLLHSICSACLEHSDVASLKASKDTVCEEIQNALNVISNASQGIQNMTTPPEPQAATLGSALDELENLIVLNPLTVTEEEIRPSLEKRLEAIISGAALLADSSCTRDLHRERIIAECNAIRQALQDLLSEYMNNAGKKERSNTLNIALDNMCKKTRDLRRQLRKAIIDHVSDSFLDTTVPLLVLIEAAKNGREKEIKEYAAIFHEHTSRLVEVANLACSMSTNEDGIKIVKIAANHLETLCPQIINAALALAARPKSQAVKNTMEMYKRTWENHIHVLTEAVDDITSIDDFLAVSESHILEDVNKCIIALRDQDADNLDRAAGAIRGRAARVAHIVTGEMDSYEPGAYTEGVMRNVNFLTSTVIPEFVTQVNVALEALSKSSLNVLDDNQFVDISKKIYDTIHDIRCSVMMIRTPEELEDVSDLEEEHEVRSHTSIQTEGKTDRAKMTQLPEAEKEKIAEQVADFKKVKSKLDAEIEIWDDTSNDIIVLAKNMCMIMMEMTDFTRGKGPLKHTTDVIYAAKMISESGSRMDVLARQIANQCPDPSCKQDLLAYLEQIKFYSHQLKICSQVKAEIQNLGGELIMSALDSVTSLIQAAKNLMNAVVQTVKMSYIASTKIIRIQSPAGPRHPVVMWRMKAPAKKPLIKREKPEETCAAVRRGSAKKKIHPLQVMSEFRGRQIY
B3: human αT-catenin fused to the LexA binding domain, bait plasmid pLexMG-ATCTN(179-2860) (other)
chain: MKALTARQQEVFDLIRDHISQTGMPPTRAEIAQRLGFRSPNAAEEHLKALARKGVIEIVSGASRGIRLLQEEEEGLPLVGRVAAGEPLLAQQHIEGHYQVDPSLFKPNADFLLRVSGMSMKDIGIMDGDLLAVHKTQDVRNGQVVVARIDDEVTVKRLKKQGNKVELLPENSEFKPIVVDLRQQSFTIEGLAVGVIRNGDWLSAETPITLNIDPQDLQVQTFTVEKLLEPLIIQVTTLVNCPQNPSSRKKGRSKRASVLLASVEEATWNLLDKGEKIAQEATVLKDELTASLEEVRKESEALKVSAERFTDDPCFLPKREAVVQAARALLAAVTRLLILADMIDVMCLLQHVSAFQRTFETLKNVANKSDLQKTYQKLGKELENLDYLAFKRQQDLKSPNQRDEIAGARASLKENSPLLHSICSACLEHSDVASLKASKDTVCEEIQNALNVISNASQGIQNMTTPPEPQAATLGSALDELENLIVLNPLTVTEEEIRPSLEKRLEAIISGAALLADSSCTRDLHRERIIAECNAIRQALQDLLSEYMNNAGKKERSNTLNIALDNMCKKTRDLRRQLRKAIIDHVSDSFLDTTVPLLVLIEAAKNGREKEIKEYAAIFHEHTSRLVEVANLACSMSTNEDGIKIVKIAANHLETLCPQIINAALALAARPKSQAVKNTMEMYKRTWENHIHVLTEAVDDITSIDDFLAVSESHILEDVNKCIIALRDQDADNLDRAAGAIRGRAARVAHIVTGEMDSYEPGAYTEGVMRNVNFLTSTVIPEFVTQVNVALEALSKSSLNVLDDNQFVDISKKIYDTIHDIRCSVMMIRTPEELEDVSDLEEEHEVRSHTSIQTEGKTDRAKMTQLPEAEKEKIAEQVADFKKVKSKLDAEIEIWDDTSNDIIVLAKNMCMIMMEMTDFTRGKGPLKHTTDVIYAAKMISESGSRMDVLARQIANQCPDPSCKQDLLAYLEQIKFYSHQLKICSQVKAEIQNLGGELIMSALDSVTSLIQAAKNLMNAVVQTVKMSYIASTKIIRIQSPAGPRHPVVMWRMKAPAKKPLIKREKPEETCAAVRRGSAKKKIHPLQVMSEFRGRQIY
B4: nearly full-length human plakoglobin, prey fusion of plasmid pGAD424-Plakoglobin(227-2340) (other, UniProt P14923 37-740, looked up)
chain: VSSKGIMEEDEACGRQYTLKKTTTYTQGVPPSQGDLEYQMSTTARAKRVREAMCPGVSGEDSSLLLATQVEGQATNLQRLAEPSQLLKSAIVHLINYQDDAELATRALPELTKLLNDEDPVVVTKAAMIVNQLSKKEASRRALMGSPQLVAAVVRTMQNTSDLDTARCTTSILHNLSHHREGLLAIFKSGGIPALVRMLSSPVESVLFYAITTLHNLLLYQEGAKMAVRLADGLQKMVPLLNKNNPKFLAITTDCLQLLAYGNQESKLIILANGGPQALVQIMRNYSYEKLLWTTSRVLKVLSVCPSNKPAIVEAGGMQALGKHLTSNSPRLVQNCLWTLRNLSDVATKQEGLESVLKILVNQLSVDDVNVLTCATGTLSNLTCNNSKNKTLVTQNSGVEALIHAILRAGDKDDITEPAVCALRHLTSRHPEAEMAQNSVRLNYGIPAIVKLLNQPNQWPLVKATIGLIRNLALCPANHAPLQEAAVIPRLVQLLVKAHQDAQRHVAAGTQQPYTDGVRMEEIVEGCTGALHILARDPMNRMEIFRLNTIPLFVQLLYSSVENIQRVAAGVLCELAQDKEAADAIDAEGASAPLMELLHSRNEGTATYAAAVLFRISEDKNPDYRKRVSVELTNSLFKHDPAAWEAAQSMIPINEPYGDDMDATYRPMYSSDVPLDPLEMHMDMDGDYPIDTYSDGLRPPYPTA
notes: domain: nearly full-length plakoglobin; not shown: fusion partner encoded by the prey vector pGAD424 (Clontech)

Assay [1] concerns the target T2, human αE-catenin fused to the GAL4 DNA binding domain, bait plasmid pGBT9-αECTN (human, UniProt P04386 1-147; P35221 2-906).
T2 construct: no residue limits are printed; also called αE-catenin bait fusion
The assay is described as follows: yeast two-hybrid, X-GAL staining of cotransformants.
Experimental: (§1) (A) Introduction in the two-hybrid system by cotransformation of the respective fusion constructs. […] (B) Quantification of interaction strength between β-catenin and either αE- or αT-catenin in the yeast two-hybrid system. β-Galactosidase activity was measured using CPRG as a substrate.

Assay [2] addresses T3, human αT-catenin fused to the GAL4 binding domain, bait plasmid pGBT9-ATCTN(179-2860) (human, UniProt P04386 1-147 (Saccharomyces cerevisiae entry)).
T3 construct: also called αT-catenin bait fusion; hαT-catenin
The description is as above.
Experimental: as §1

Assay [3] has as its target B2. In words: yeast two-hybrid, Y190 strain, CPRG quantification (FIG. 7B).
Experimental: (§2) The yeast strain Y190 (Matchmaker, Clontech, CA), which contains GAL4 promoter driven His and β-galactosidase reporters, was used for cotransformation of pGBT9 bait and pGAD424 prey plasmids, comprising the cloned inserts of interest.
To assay the strength of interaction between α-catenins and β-catenin, β-galactosidase activity was assayed using chlorophenol red-β-D-galactopyranoside (CPRG, Boehringer Mannheim, Del.) as a substrate, according to the provided protocol (Clontech Yeast Protocols Handbook).
For assay [4], the target named is T4, human α-catulin fused to the GAL4 DNA binding domain, bait plasmid pGBT9-αctl(50-2264) (human, UniProt P04386 1-147; Q9UBT7 1-734).
T4 construct: Limits are printed only as cDNA positions (50-2264); also called α-catulin bait fusion
In words: yeast two-hybrid, cotransformation of bait and prey, X-GAL staining (FIG. 7A).
Text: as §2

Assay [5] has as its target B1. The assay is described as follows: cell-based or functional assay.
For assay [6], the target named is T1, β-catenin prey fusion of plasmid …. The assay is described as follows: cell-based or functional assay.
For assay [7], the target named is T3, human αT-catenin fused to the GAL4 …. The assay is described as follows: yeast two-hybrid, X-GAL staining of cotransformants (FIG. 7A).
Text: as §2

On to B1, for which the binding result in assay [1] was “binds”; in assay [2] it was “binds”; in assay [3], “binds”; in assay [4], “no binding”.

In the case of B2, in assay [5], the “β-Galactosidase activity measured using CPRG as a substrate, yeast two-hybrid, Y190 yeast strain” value was ~4 fold against αE-catenin/β-catenin (pGBT9-αEctn plus pGAD424-ATβctn).

For the molecule B3, the “β-Galactosidase activity measured using CPRG as a substrate, yeast two-hybrid, L40 yeast strain” value in assay [6] was ~4 fold against αE-catenin/β-catenin (pLexMG-αEctn plus pGAD424-βctn).

With B4, in assay [7], the binding result is recorded as “binds”.
